Tested on: K4 kissing-loop RNA reporter
Assay: apparent KD of K4 kissing-loop reporter; higher = weaker reporter binding
Details: Eterna round: R107
Experimental: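 RNA-MaP round R107: designed RNA switches with theophylline, tryptophan, arginine or FMN aptamers are transcribed on-chip within common flanks. They are titrated with a labelled K4 kissing-loop RNA reporter in RNA-MaP buffer (100 mM Tris pH 7.5, 80 mM KCl, 4 mM MgCl2), without ligand or with the indicated ligand. Median apparent KD per design.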

[1] = input ligand: theophylline 20 uM
[2] = input ligand: tryptophan 2.4 mM
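Also: bound reporter read as fluorescence of individual clusters on recovered sequencing chips by microscopy, with normalized cluster intensities fitted with a binding model.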

Sequence	apparent KD of K4 kissing-loop reporter (input ligand: FMN 200 uM)	apparent KD of K4 kissing-loop reporter (input ligand: arginine 13.2 mM)	apparent KD of K4 kissing-loop reporter (input ligand: none)	apparent KD of K4 kissing-loop reporter [1]	apparent KD of K4 kissing-loop reporter [2]
GGGUAUUACGGAGGAUAUGCACUGAGGAGGAGAAUAUAGUGAUGUUAUAUAAGAGGAAGGAGAAGAGUAGAAGGCCGUGGUGUUU [SSFMNB.J]	171 nM	126 nM	170 nM	195 nM	109 nM
AGGCACGAGCAAGGAUAUUGAGUAGAGUGAUGUUCUGCCUGGGUUGGCUCGUAAGAGCCUUCUCAGCGAGAAGGUGCUCGUGCCU [#2 Same State - FMN A Attempt #23 (HarryS)]	254 nM	432 nM	679 nM	552 nM	636 nM
UGUCAUUGGUCUGAUACCAGAAGAAUCUGGAGUGAUGUUCCAAGUCGAUCAAAAGAUCGCUUCCCUUGGCAGCAGACCGAUGACU [TheoBS 24 #SwitchBubble 13 #StaticStem]	315 nM	291 nM	300 nM	188 nM	298 nM
UGCUUUAUCAGAAGGAGCGGGUUGUUCAUAAUAAUAAUCAGUGAUGUUGAUAUAUGAUGAUUCCAGGUAGGUCGCUGAUAUAGCU [KL-XARG-B2]	283 nM	214 nM	273 nM	256 nM	238 nM
GCUAGCAUGGCAGGAUAUAGCAAUAGGAGUGAUGUUCCUUGGUAGGUGAGUGAUGUUCACUACCAACUAGAAGGGCCAUGCUAGC	139 nM	111 nM	126 nM	108 nM	129 nM
UGUACCGAGUCAGGAUAUACCGUCGAAAGACGAAAUGGAGUGAUGUUCCUUAAACUGCGAAAGCAGGUAGAAGGGACUUGGUACU [FmnBS 30 #SwitchBubble #StaticStem #DoubleMagnetSystem]	165 nM	263 nM	267 nM	263 nM	262 nM
AGCCGAAAGGCGAGUGCUGUCACUCCGGAAGGAGCGCUCGAAAGAGCAGGUAGGUCGCCGGAGUGAUGUUCCGGUGCAGCACUCA [Omei KL Arginine A Exc B v5]	654 nM	390 nM	1250 nM	1210 nM	1100 nM
UUACUACCCAGUGAUGUUGGGUAGCGGCGGCGAGGACCGGUACGGCCGCCACUCGGCGCACGGGAGUGAUGUUCCUAAGAAUAAA [Same State Tryptophan A GF 9]	295 nM	306 nM	335 nM	350 nM	140 nM
UACUAUAGUGAUGUUAUAGAUAAACCAGAUACCAGUGUAACAUAACACCCUUGGCAGCUGAUAAGGGAAAGUAUAAAUGUGUAUU [AstrosSSTHe-A#3newdesignED]	230 nM	198 nM	228 nM	219 nM	205 nM
AAGUGUCAUUAGACACACGCAUCUAUAAACUAGGAUAUGCUGAUAAGCAGAAGGAGUGAUGUUCCUUUCAUGAUGCGAAUUAAAU [#07 K4 FMN A Exclusion]	224 nM	123 nM	113 nM	135 nM	111 nM
CGAGUGAUGUUCGUUUUUUAAUUUUUUUGACAGGAUAUGCGGAAACGCAGAAGGGUCACCUUUGAGUUAAAAGAAUUUAUUUUUU [Ex FMN A 17]	321 nM	236 nM	295 nM	298 nM	199 nM
AGUGAUGUUGUGUUAUGCAAGGGAAGUGAUCGAGGACCGGUACGGCCGCCACUCGAGUGAUGAGUGAGUGAUGUUUGUUUAGGGA [ffgmullin]	1180 nM	451 nM	933 nM	883 nM	401 nM
UGGAGUUGACGAAAAGUCAACUCCCGAGAAGGAGCGGACGAAAGUCCAGGUAGGUCGCUCGCUACCAGUGAUGUUGGUACGUAAA	107 nM	143 nM	116 nM	139 nM	101 nM
GCACACUAGUAAACUAGUGUGUUAACUGAAGGAGCGUGAAUAAUCACAGGUAGGUCGCAGUUUGUCAGUGAUGUUGACACGAGUG [Arg A SS t2]	165 nM	217 nM	249 nM	247 nM	179 nM
UCCAGGAAUCAUGUCGUAGUGAUGUUAUGACGAGGACCGGUACGGCCGCCACUCGUCGUGGCCGGUUCUGAGGGCUAAUCUCUCA [theeternabot_exclusion_KL_Trp_A_34]	247 nM	214 nM	273 nM	227 nM	632 nM
UGUCAUUGGUCGGCCGCCACUAUAUAAAAGAGUGAUGUUCUAAAGACGGAUCGAAAGAUCUGUCAUAGGACCGGGACCGAUGACU [TrypBS 20 #SwitchBubble #StaticStem]	293 nM	204 nM	308 nM	294 nM	1140 nM
AUUUAUGUUUCGGCCGCCACUCCACGUACUCAGAGAGAGUGAUGUUCUUUUUAUUAACGUCUAUGGAGGACCGGGAAGAGGUGAG [theeternabot_exclusion_KL_Trp_B_37]	672 nM	640 nM	930 nM	931 nM	536 nM
GUAUGUGGAAACACGUACUUAUAUCCUAAGCAGGAUAUGCGGAAACGCAGAAGGGCUACCAACGAGUUUACCCAGUGAUGUUGGG [Ex FMN A 14]	275 nM	260 nM	320 nM	288 nM	296 nM
UGAUACCAGACGGCCGCCACUCUUGCAGUCAAAGACUGCUAAAAGGAAAUCGUCCAGUGAUGUUGGAGGACCGGGUCUGGUAUCU [TrypBX 15 #SwitchBubble #Palindromic #StaticStem]	1420 nM	774 nM	1370 nM	774 nM	736 nM
AGCUAGUGAAACUAGUUUAAACUAGGUGAAGGAGCGAUCGAAAGAUCAGGUAGGUCGCACCUAACUGAGUGAUGUUCAGGAAAUA [KL-SSArg-A4]	67.1 nM	54.3 nM	70.7 nM	66.7 nM	61.3 nM
GUUACGCAUGGAAGGAGCGCACUCCGAUUGGGCGACGCAGUGAUGUUGUGGUUCGUUCGAAUGCAGGUAGGUCGCCAUGUGUAAC [Ex Arginine B K4 21]	186 nM	172 nM	176 nM	141 nM	192 nM
UACACGACUCGUGUAAACCGAGGUAACAGGCAGGAUAUGUAACGGAACAGAAGGGCCAUGUAGCGUGUCCAGUGAUGUUGGAUGC [Betilare]	199 nM	166 nM	186 nM	180 nM	173 nM

Sequence	apparent KD of K4 kissing-loop reporter (input ligand: FMN 200 uM)	apparent KD of K4 kissing-loop reporter (input ligand: arginine 13.2 mM)	apparent KD of K4 kissing-loop reporter (input ligand: none)	apparent KD of K4 kissing-loop reporter [1]	apparent KD of K4 kissing-loop reporter [2]
AGUGAUGUUGUGUUAUGUUUGGGAAGUGAUCGAGGACCGGUACGGCCGCCACUCGAGUGAUGAGUGAGUGAUGUUUGUUUAGGGA [whbob_SS_Tryp_A_m9]	1060 nM	698 nM	962 nM	1120 nM	498 nM
AAUAACUUGCAGUGAUGUUGCAAGAAAUCUCAGGAUAUCAGGAAACUGAGAAGGGAGUAUCCUGAGUAAACAUCACAUCUUAGGA [KL-SSFMN-A8]	322 nM	364 nM	399 nM	376 nM	369 nM
ACGAAUCCAGCGGCCGCCACUAUUCGAUGAGUGAUGUUUAGGAGUAGAUCAUACCGCCGUGGUAAUAGGACCGGGCUCUUUGUAG [theeternabot_exclusion_KL_Trp_B_36]	289 nM	129 nM	201 nM	193 nM	207 nM
UGUGUUGUUUUGAUGUUUGUUGUAAAAUGGCAGGAUAUCGUAGAGGCGAGAAGGGCUUUUAUGCGUUAUGAGUGAUGUUUGUAGG [zvvczmullin]	338 nM	283 nM	352 nM	340 nM	263 nM
CCAUCGCUAUUCGAUACCAGCCAAGAGGUCUUUGGCCUCUUAAUGGAGUGAUGUUCCAUUGGCCCUUGGCAGCGAAUAGUGAUGG [Theophylline B K4 18]	771 nM	489 nM	723 nM	823 nM	798 nM
AUUAAUAACAGAGGAUAUGCAUUAUUAUUAUUUUUAAAUAAUAAAUGCAGUGAUGUUGCAUAUUAAGCAGAAGGCUGAUUUAUUU [JR_SSFMNB_Sub011]	137 nM	516 nM	484 nM	439 nM	353 nM
GAUUUAGAGGCGGCCGCCACUAGUGAUGUUAGUGAUGUUUGAUAGGGAAUAUAUCAGCGAGUAGAUAGGACCGGGCCAGAUGGAG [gtggbmullin]	248 nM	183 nM	203 nM	189 nM	167 nM
GGAUCCACCAGUGAUGUUGGAGAAAACUCCAAGGAUAUGACGAAAGUCAGAAGGUGGUAGACUGGUCAAAGUCCGGUCGGAUCCA [FmnA10 U66]	297 nM	77.4 nM	338 nM	297 nM	262 nM
UUUUUAUGCAGUGAUGUUGCUAAUAUAACAGAGGAUAUGCAUUAAAGCAGAAGGCUGAAAUACUAUACUUUAAUAAAUUAAAUUU [JR_SSFMNA_Sub013]	94.2 nM	136 nM	107 nM	144 nM	82.7 nM
CAUAAAAGGUGGAAGACGAAUCGGUGUCGCCGAGGACCGGUACGGCCGCCACUCGGUCAUCAAAUCCUUCCCGAGUGAUGUUCGA [theeternabot_sameState_KL_Trp_A_5]	382 nM	439 nM	501 nM	444 nM	258 nM
AUGUACAUUCUCAGUGAUGUUGGGUUGUAACGAGGACCGGUACGGCCGCCACUCGGGAUGUGGUAUAUAGAUGUAUGUGUAGCAU [skye_SS_TA]	612 nM	271 nM	446 nM	512 nM	439 nM
CGUAGCAGAUGAAGGAGCGGCUACCUGUAUCAGGCAACUGCCUGAGUGAUGUUCAGGUAUAGCCAGGUAGGUCGCAUCUGCUACG [Arg B Ex t9b]	240 nM	206 nM	214 nM	211 nM	212 nM
GCCGUAGAUUGAAGGAGCGGCUUCAUCAAAUCUCUUGCCCGCACCAGUGAUGUUGGUGUUAGCCAGGUAGGUCGCAAUCUACGGC	577 nM	376 nM	583 nM	493 nM	465 nM
UGAUACCAGACUGAUACCAGCCAGUGAUGUUGGCAAUAUCCAAGGUGAGUCAAAGACUCGGGCCCUUGGCAGCAGUCUGGUAUCU [TheoBX 7 #SwitchBubble #StaticStem]	146 nM	139 nM	148 nM	152 nM	135 nM
UGGAUUAGGACGGCCGCCACUACGCUGGCAUGAGUGAUGUUCUAAGGCUUGUCAAAGAUCCAGAGUAGGACCGGGUCCAAUGACU [theeternabot_exclusion_KL_Trp_B_38]	293 nM	225 nM	275 nM	261 nM	271 nM
AUAAUUAUAUAGAAAUAUAUAAUUAUAUAACGAGGACCGGUACGGCCGCCACUCGUGCCGGGCAUAAAAUGAGUGAUGUUCAUGU [KL-XTryp-A7 #analogue]	205 nM	228 nM	212 nM	193 nM	198 nM
AAACAUCACUGGGAGUGAUGUUCUCAGUGACGAGGACCGGUACGGCCGCCACUCGCGAGAGAUAUAGAUGAGUAAUGACAUCAUU [Excl Tryptophan A V3]	277 nM	232 nM	286 nM	274 nM	304 nM
UACUAUAGUGAUGUUAUAGAUAAACCAGAUACCAGUGUAACAUAACACCCUUGGCAGCUGAUGAGGGAAGUUAUCAAAAGAUAAC [AstroSTH-A#10designED4.80]	227 nM	190 nM	142 nM	115 nM	198 nM
AGGUUUUGCGGAGGAUAUGCACUGAGGAGGAGAAUAUAGUGAUGUUAUAUAAGAGGAAGGAGAAGAGUAGAAGGCCGUGAGGUUU [SSFMNB.N]	144 nM	109 nM	115 nM	124 nM	82.1 nM
UUUUAAUGCAGUGAUGUUGCUAAUAAAACAGAGGAUAUGCAUGGAAGCAGAAGGCUGAAAUAUUAUACUUUAAUAAAUUAUAUUU [JR_SSFMNA_Sub010]	71.2 nM	116 nM	78.8 nM	119 nM	66.6 nM
GGUGUUGUUUGUGCUGUUUUCCUCGUUUCUCGAGGACCGGUACGGCCGCCACUCGAGUGAUGUUUGGGUAGCGAUCUUUGUUAGU [Bdazzled - #5 Exc. Tryptophan A]	223 nM	142 nM	177 nM	177 nM	281 nM

Reference: the supplement of paper PMC9170038
